Laboratory results published in article PMC3419727, “Identifying the Hotspots on the Top Faces of WD40-Repeat Proteins from Their Primary Sequences by β-Bulges and DHSW Tetrads” (PLoS ONE, 2012).

B1: S. japonicus Tup11 WD40 domain (amino acids 301–630), wild type [S. japonicus] / C-terminal region of S. pombe Fep1 (amino acids 319–564) [S. pombe] (parent complex)
chain 1: ERTKESGQDWYAVYNEKMPKRMSIGLVHTLEHKSVVCCVRFSADGKYLATGCNRAAEIFDVQTGQKLATFEQENTNPETDLYIRSVAFSPDGKYLVTGAEDRQIRMWDIATGKVKHVFVGHEQDIYSLDYSRDGRYIVSGSGDHTARLWEAETGKCVLTLAIENGVTAVAFSPNNQFIAAGSLDQVIRVWSITGTLLKKLEGHRESVYSIAFSADGKYLASGSLDKTMRLWELKLDENAKTCSKASAISTYTGHSNFVLSVAISPNGKWAVSGSKDRSVQFWNLKTDELYLTFQGHKNSVISVCFSPDGKLFATGSGDLRARIWSIEDTA
chain 2: AAGEPDNNGKVYYSYGPTQEQSILPLPENKHEGLPPYQNEYVPNGIRANQVVYPGQLVAVGNDSSKQLSESTTSNTDNNGVATANQSNPLGMKFHLPPILPVGESVCLPPRTSAKPRIAEGIASLLNPEEPPSNSDKQPSMSNGPKSEVSPSQSQQAPLIQSSTSPVSLQFPPEVQGSNVDKRNYALNVLSQLRSQHDLMIQELHNLNQHIQQIDEWLRSSDNENMASEHIKSSTPAVVASGALQT

Variants of: B1
Assay: ITC; parent: -6.6; read off a plot

dG [kcal/mol]	Variant
~-5.6	chain 1 ERTKESGQDWYAVYNEKMPKRMSIGLVHTLEHKSVVCCVRFSADGKYLATGCNRAAEIFDVQTGQKLATFEQENTNPETDLYIRSVAFSPDGKYLVTGAEDRQIRMWDIATGKVKHVFVGHEQDIYSLDYSRDGRYIVSGSGDHTARLWEAETGKCVLTLAIENGVTAVAFSPNNQFIAAGSLDQVIRVWSITGTLLKKLEGHRESVASIAFSADGKYLASGSLDKTMRLWELKLDENAKTCSKASAISTYTGHSNFVLSVAISPNGKWAVSGSKDRSVQFWNLKTDELYLTFQGHKNSVISVCFSPDGKLFATGSGDLRARIWSIEDTA [chain 1 Y208A]
~-5.6	chain 1 ERTKESGQDWYAVYNEKMPKRMSIGLVHTLEHKSVVCCVRFSADGKYLATGCNRAAEIFDVQTGQKLATFEQENTNPETDLYIRSVAFSPDGKYLVTGAEDRQIRMWDIATGKVKHVFVGHEQDIASLDYSRDGRYIVSGSGDHTARLWEAETGKCVLTLAIENGVTAVAFSPNNQFIAAGSLDQVIRVWSITGTLLKKLEGHRESVYSIAFSADGKYLASGSLDKTMRLWELKLDENAKTCSKASAISTYTGHSNFVLSVAISPNGKWAVSGSKDRSVQFWNLKTDELYLTFQGHKNSVISVCFSPDGKLFATGSGDLRARIWSIEDTA [chain 1 Y126A]
~-5.4	chain 1 ERTKESGQDWYAVYNEKMPKRMSIGLVHTLEHKSVVCCVRFSADGKYLATGCNRAAEIFDVQTGQKLATFEQENTNPETDLYIASVAFSPDGKYLVTGAEDRQIRMWDIATGKVKHVFVGHEQDIYSLDYSRDGRYIVSGSGDHTARLWEAETGKCVLTLAIENGVTAVAFSPNNQFIAAGSLDQVIRVWSITGTLLKKLEGHRESVYSIAFSADGKYLASGSLDKTMRLWELKLDENAKTCSKASAISTYTGHSNFVLSVAISPNGKWAVSGSKDRSVQFWNLKTDELYLTFQGHKNSVISVCFSPDGKLFATGSGDLRARIWSIEDTA [chain 1 R84A]
~-6.4	chain 1 ERTKESGQDWYAVYNEKMPKRMSIGLVHTLEHKSVVCCVRFSADGKYLATGCNRAAEIFDVQTGQKLATFEQENTNPETDLYIRSVAFSPDGKYLVTGAEDRQIRMWDIATGKVKHVFVGHEQDIYSLDYSRDGRYIVSGSGDHTARLWEAETGKCVLTLAIENGVAAVAFSPNNQFIAAGSLDQVIRVWSITGTLLKKLEGHRESVYSIAFSADGKYLASGSLDKTMRLWELKLDENAKTCSKASAISTYTGHSNFVLSVAISPNGKWAVSGSKDRSVQFWNLKTDELYLTFQGHKNSVISVCFSPDGKLFATGSGDLRARIWSIEDTA [chain 1 T167A]

Further lines, the variant ahead of its results:

Variant	dG [kcal/mol]
chain 1 ERTKESGQDWYAVYNEKMPKRMSIGLVHTLEHKSVVCCVRFSADGKYLATGCNRAAEIFDVQTGQKLATFEQENTNPETDLYIRSVAFSPDGKYLVTGAEDRQIRMWDIATGKVKHVFVGHEQDIYSLDYSRDGRYIVSGSGDHTARLWEAETGKCVLTLAIENGVTAVAFSPNNQFIAAGSLDQVIRVWSITGTLLKKLEGHRESVYSIAFSADGKYLASGSLDKTMRLWELKLDENAKTCSKASAISTYTGHSNAVLSVAISPNGKWAVSGSKDRSVQFWNLKTDELYLTFQGHKNSVISVCFSPDGKLFATGSGDLRARIWSIEDTA [chain 1 F257A]	~-5.9
chain 1 ERTKESGQDWYAVYNEKMPKRMSIGLVHTLEHKSVVCCVRFSADGKYLATGCNRAAEIFDVQTGQKLATFEQENTNPETDLYIRSVAFSPDGKYLVTGAEDRQIRMWDIATGKVKHVFVGHEQDIYSLDYSRDGRYIVSGSGDHTARLWEAETGKCVLTLAIENGVTAVAFSPNNQFIAAGSLDQVIRVWSITGTLLKKLEGHRESVYSIAFSADGKYLASGSADKTMRLWELKLDENAKTCSKASAISTYTGHSNFVLSVAISPNGKWAVSGSKDRSVQFWNLKTDELYLTFQGHKNSVISVCFSPDGKLFATGSGDLRARIWSIEDTA [chain 1 L224A]	~-6
chain 1 ERTKESGQDWYAVYNEKMPKRMSIGLVHTLEHKSVVCCVRFSADGKYLATGCNRAAEIFDVQTGQKLATFEQENTNPETDLYIRSVAFSPDGKYLVTGAEDRQIRMWDIATGKVKHVFVGHEQAIYSLDYSRDGRYIVSGSGDHTARLWEAETGKCVLTLAIENGVTAVAFSPNNQFIAAGSLDQVIRVWSITGTLLKKLEGHRESVYSIAFSADGKYLASGSLDKTMRLWELKLDENAKTCSKASAISTYTGHSNFVLSVAISPNGKWAVSGSKDRSVQFWNLKTDELYLTFQGHKNSVISVCFSPDGKLFATGSGDLRARIWSIEDTA [chain 1 D124A]	~-6.9
chain 1 ERTKESGQDWYAVYNEKMPKRMSIGLVHTLEHKSVVCCVRFSADGKYLATGCNRAAEIFDVQTGQKLATFEQENTNPETDLYIRSVAFSPDGKYLVTGAEDRQIRMWDIATGKVKHVFVGHEQDIYSLDYSRDGRYIVSGSGDHTARLWEAETGKCVLTLAIENGVTAVAFSPNNQFIAAGSSDQVIRVWSITGTLLKKLEGHRESVYSIAFSADGKYLASGSLDKTMRLWELKLDENAKTCSKASAISTYTGHSNFVLSVAISPNGKWAVSGSKDRSVQFWNLKTDELYLTFQGHKNSVISVCFSPDGKLFATGSGDLRARIWSIEDTA [chain 1 L183S]	~-6.8
chain 1 ERTKESGQDWYAVYNEKMPKRMSIGLVHTLEHKSVVCCVRFSADGKYLATGCNRAAEIFDVQTGQKLATFEQENTNPETDLYIRSVAFSPDGKYLVTGAEDRQIRMWDIATGKVKHVFVGHEQDIYSLDYSRDGRYIVSGSGDHTARLWEAETGKCVLTLAIENGVTAVAFSPNNQFIAAGSLDQVIRVWSITGTLLKKLEGHRESVYSIAFSADGKYLASGSLDKTMRLWELKLDENAKTCSKASAISTYTGHSNFVLSVAISPNGKWAVSGSKDRSVQFWNLKTDELYLTFQGHKNSVASVCFSPDGKLFATGSGDLRARIWSIEDTA [chain 1 I301A]	~-5.4
chain 1 ERTKESGQDWYAVYNEKMPKRMSIGLVHTLEHKSVVACVRFSADGKYLATGCNRAAEIFDVQTGQKLATFEQENTNPETDLYIRSVAFSPDGKYLVTGAEDRQIRMWDIATGKVKHVFVGHEQDIYSLDYSRDGRYIVSGSGDHTARLWEAETGKCVLTLAIENGVTAVAFSPNNQFIAAGSLDQVIRVWSITGTLLKKLEGHRESVYSIAFSADGKYLASGSLDKTMRLWELKLDENAKTCSKASAISTYTGHSNFVLSVAISPNGKWAVSGSKDRSVQFWNLKTDELYLTFQGHKNSVISVCFSPDGKLFATGSGDLRARIWSIEDTA [chain 1 C37A]	~-6.2
chain 1 ERTKESGQDWYAVYNEKMPKRMSIGLVHTLEHKSVVCCVRFSADGKYLATGCNRAAEIFDVQTGQKLATFEQENTNPETDLYIRSVAFSPDGKYLVTGAADRQIRMWDIATGKVKHVFVGHEQDIYSLDYSRDGRYIVSGSGDHTARLWEAETGKCVLTLAIENGVTAVAFSPNNQFIAAGSLDQVIRVWSITGTLLKKLEGHRESVYSIAFSADGKYLASGSLDKTMRLWELKLDENAKTCSKASAISTYTGHSNFVLSVAISPNGKWAVSGSKDRSVQFWNLKTDELYLTFQGHKNSVISVCFSPDGKLFATGSGDLRARIWSIEDTA [chain 1 E100A]	~-6.2
